Reference: paper PMC4605295, “The N-terminus of RPA large subunit and its spatial position are important for the 5′->3′ resection of DNA double-strand breaks” (Nucleic Acids Research, 2015)

Biological target: T1, GST fusion of Xenopus RPA1 (RPA large subunit) (Xenopus, UniProt Q01588 1-609)
T1 construct: Xenopus RPA1, large subunit of replication protein A; the gene for the subunit was subcloned into a pGEX vector; In-frame GST fusion from a pGEX vector; also called the large subunit; source: E. coli BL21(DE3), purified (glutathione Sepharose)
Assay: pull-down; GST fusions of RPA subunits or RPA1 regions incubated with His-tagged WRN 1-465, isolated on glutathione Sepharose beads, 4°C 1 h; washed with buffer A + 150 mM NaCl + 0.005% NP-40; Western blot for WRN
Conditions: both partners purified

T1 sequence (Q01588 whole entry, the tested form may be a part): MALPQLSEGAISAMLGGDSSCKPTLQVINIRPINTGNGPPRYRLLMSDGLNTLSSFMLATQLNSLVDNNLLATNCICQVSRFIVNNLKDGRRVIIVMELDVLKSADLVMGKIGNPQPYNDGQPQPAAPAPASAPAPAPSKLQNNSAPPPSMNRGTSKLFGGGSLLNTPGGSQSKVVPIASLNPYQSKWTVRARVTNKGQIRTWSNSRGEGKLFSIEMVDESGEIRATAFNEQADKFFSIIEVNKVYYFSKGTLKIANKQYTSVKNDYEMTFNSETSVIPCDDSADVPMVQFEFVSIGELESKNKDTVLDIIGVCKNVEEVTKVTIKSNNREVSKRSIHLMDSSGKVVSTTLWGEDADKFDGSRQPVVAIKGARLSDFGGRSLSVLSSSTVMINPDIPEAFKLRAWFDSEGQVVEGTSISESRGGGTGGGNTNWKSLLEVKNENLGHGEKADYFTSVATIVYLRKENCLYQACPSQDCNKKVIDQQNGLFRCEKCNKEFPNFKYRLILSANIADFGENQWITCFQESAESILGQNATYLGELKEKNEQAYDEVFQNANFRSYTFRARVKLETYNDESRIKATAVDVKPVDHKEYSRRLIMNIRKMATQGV

binding result: binds
B1: His-tagged Xenopus WRN 1-465 (domain or fragment, UniProt O93530 1-465, looked up)
chain: MTSLQRKLPEWMSVKQQEDRIDDAKKSFCKKNILEDNLPFMKFNGSIVYSYESNDCSLLSEDIRSSLLEEDVLGFDIEWPPVYTKGKTGKVALIQVCVSEKKCYLFHISPMAGFPKGLKRLLEDESVRKVGVGIEGDQWKLMSDYELKLKGFIELSEMANQKLRCKEKWTFNGLIKHLFKEQLYKRKSYRCSNWDIFLLTEDQKLYAATDAYAGLLIYKKLEGMDAHESDSFRVGREGVADCKGVKRQLTDLSKGLMDLVNQVPNSFGCYTEAVRAVDILEDLSEKLEELRNIMKEASKAEGNGLHFQNSEDCSKKDKSILHVACKESLAEHKMDCKNADSQNNKDIDSCQNENRDEDFFMTLGISEEELYMMEREDDKKQTNPDYKLNKDSCDTNEEKDMSYVIESDEDFDSEIIKSLEDLDNSTEEALGTGVPQAGLIPAKSVDTVADEEEDEGIEEEDDDDD
